Measured values reported in patent US6855270B2, “Nanoscintillation systems for aqueous-based liquid scintillation counting” (The University of Kentucky Research Foundation, priority 2001, dated 2005).

Key:
[1] = particle / droplet size by photon correlation spectroscopy (Coulter N4 Plus); format: physicochemical
Experimental: To determine the existence of an oil-in-water microemulsion window for the microemulsion precursor, exactly two (2) milligrams of emulsifying wax were weighed accurately into ten separate 7-mL glass vials and melted at 50° C. on a temperature calibrated magnetic hot plate. Water (0.2 μm filtered) was then added (750-1000 μL) to form a homogeneous milky slurry in the stirring water at 50° C. To form the microemulsion precursor, the surfactant polyoxy 20 stearyl ether (100 mM) in water was added (0-250 μL) so that the final surfactant concentration ranged from 0 mM to 25 mM in the ten vials. The microemulsion precursor was then removed from heat (52-54° C.) and allowed to cool to 25° C. while stirring. […] Thus, an apparent microemulsion window was defined. One hundred (100) μL of each cooled system was taken and diluted with 900 μL water. The particle size of the diluted solid nanoparticles was determined using a Coulter N4 Plus Sub-Micron Particle Sizer at 20° C. by scattering light at 90° for 120 seconds. The particle sizes of systems with no surfactant added could not be determined since the systems contained precipitates that were greater than 3000 nm in diameter. […] To determine if the measured droplet sizes in either the microemulsion nanotemplate or the cured solid nanoparticles were due to the presence of surfactant micelles, samples were made as described above with no emulsifying wax and with final surfactant concentrations ranging from 0 mM to 100 mM in water. […] It is likely that the relatively heterogeneous nature of the polymeric surfactant makes the determination of its CMC difficult using conventional techniques. Photon correlation spectroscopy, using a Coulter N4 Plus Submicron Particle Sizer, was used to determine the existence and the size of the surfactant micelles.
Preparation of polyoxyethylene 2 stearyl ether nanoparticles. Three separate samples of polyoxyethylene 2 stearyl ether nanoparticles were engineered using the following process. Polyoxyethylene 2 stearyl ether (2 mg) was melted at 50-55° C. and dispersed in 970 microliters of water at the same temperature. Thirty microliters of solution of Tween 80 (10% v/v in water) was added to produce a clear oil-in-water microemulsion at approximately 55° C. The oil droplet size of liquid polyoxyethylene 2 stearyl ether was measured by photon correlation spectroscopy to be 22.2±1.8 nanometers at approximately 55° C. Polyoxyethylene 2 stearyl ether nanoparticles were cured by three different methods as follows: Method A) cooling of the undiluted oil-in-water microemulsion at 55° C. to room temperature while stirring, Method B) cooling of the oil-in-water microemulsion at 55° C. by placing undiluted in a refrigerator at 4° C., and Method C) diluting (1/10) the oil-in-water microemulsion at 55° C. with water at 4° C. […] Further, Method A illustrated a key advantage of simply allowing the oil-in-water microemulsion to cool to room temperature to form useful solid nanoparticles. This method allows for rapid, reproducible, and cost-effective method to engineer useful nanoparticles.
Preparation of Emulsifying Wax nanoparticles. Three separate samples of emulsifying wax nanoparticles were engineered using the following process. Emulsifying wax (2 mg) was melted at 50-55° C. and dispersed in 970 microliters of water at the same temperature. […] The oil droplet size of liquid emulsifying wax was measured by photon correlation spectroscopy to be 24.5±0.4 nanometers at approximately 55° C. […]

[2] = cited from earlier work
[3] = ASF-pal alone in water, 1340 μg/mL

ASF-pal: Asialofetuin derivatized with about 12 palmitate arms per molecule; ligand
effect of added ASF-pal on particle size of cured solid nanoparticles ([1]; 200 μg nanoparticles per 1 mL): only a small effect | size of micelles formed ([1]; ASF-pal alone in water, 67 μg/mL): 3-15 nm | size of larger aggregates formed [1, 3]: 40-300 nm | size of micelles formed [1, 3]: 3-10 nm

CC(=O)C=C(C)[O-].CC(=O)C=C(C)[O-].CC(=O)C=C(C)[O-].[Gd+3] [GdAcAc, Gadolinium acetylacetonate]
diameter of nanoparticles entrapping GdAcAc [1]: about 50 nanometers

c1ccc(-c2cnc(-c3ccccc3)o2)cc1 [PPO, 2,5-diphenyloxazole]
classification of water solubility [2]: water-insoluble
